Assay results: patent publication US7012060B1, “TNF receptor and steroid hormone in a combined therapy” (priority 1995, dated 2006)
Marks after values point to notes of the source that are not given here.

B1: TBP-1: urinary as well as recombinant TBP-1 (derived from both CHO and E. Coli cells), literature (protein, UniProt P19438 30-211, looked up)
extracellular domain: LVPHLGDREKRDSVCPQGKYIHPQNNSICCTKCHKGTYLYNDCPGPGQDTDCRECESGSFTASENHLRHCLSCSKCRKEMGQVEISSCTVDRDTVCGCRKNQYRHYWSENLFQCFNCSLCLNGTVHLSCQEKQNTVCTCHAGFFLRENECVSCSNCKKSLECTKLCLPQIENVKGTEDSGTT
modifications: extracellular domain
notes: urinary as well as recombinant TBP-1 (derived from both CHO and E. Coli cells), literature
B2: r-hTBP-1: CHO recombinant human TBP-1, the extracellular soluble domain of TNF-R1 (TNF Binding Protein-1) (protein, UniProt P19438 30-211, looked up)
extracellular domain: B1 extracellular domain
modifications: extracellular domain

What was measured:
septic shock = settings: urinary and recombinant TBP-1 (CHO and E. Coli); cited from earlier work
[1] = system: septic shock induced by LPS + D-Galactosamine, in mice; assay: LPS+D-Galactosamine-induced septic shock model; format: in vivo, SPF female BALB/c inbred mice
Description: The experiments were carried out in vivo on mice. The septic shock was induced by an i.p. administration of a mixture of LPS (0.1 μg/mouse) and D-Galactosamine (18 mg/mouse).
The treatment schedule for r-hTBP-1 based on repeated administrations (the total dose was divided into 4 administrations given at time 0 and […] and 24 hours after), was adopted. CHO r-hTBP-1 was tested, alone or in combination with DHEA, at dose levels of 62.5 and 125 μg/mouse (total dose).
DHEA was tested both in a single administration injected i.p. one hour before and contemporaneously to the septic shock-inducing agent at doses encompassed between 100 and 2.000 μg/mouse and in repeated treatment with the total dose (250 μg/mouse) divided into 4 injections given within 24 hours.
The above treatment schedules of DHEA (doses from 250 to 1,500 μl g/mouse) were followed also in combination with r-hTBP-1 which was tested at the total dose varying from 62.5 to 125 μg/mouse (divided into 4 administrations).
SPF female BALB/c inbred mice, 6–8 weeks (about 18–20 g b.w.), from Charles River were used throughout the whole study after an acclimatisation period of at least 7 days.
Unless otherwise specified, in all the experiments the mice were randomly divided into groups of 10 animals each.
Both substances were dissolved in saline. The mixture of LPS (0.1 μg/mouse) and D-Galactosamine (18 mg/mouse) was prepared by mixing equal volumes of these substances. The mixture was subsequently injected to animals by the i.p. route. This dose was selected under precious experiments as that inducing around 80% mortality calculated as the number of dead vs. total number of mice for each croup. The lethality was monitored after 24, 48, 72 and 96 hours and at day 7 post-treatment.
The drug was diluted in saline and injected by repeated administrations, i.e. i.v. immediately before the inoculum of LPS plus D-Galactosamine and s.c. 3, 6 and 24 hours later.
The effects of DHEA, alone or in combination with r-hTBP-1, were assayed after single i.p. administrations at different times in respect to LPS+D-Galactosamine injection; in particular, it was administered 1 hour before and contemporaneously to the septic shock-inducing agent.
A repeated treatment schedule was also investigated in which DHEA was administered at time 0 (septic shock induction) and 3, 6 and 24 hours later. DHEA was initially vehicled in a mixture of 2.5% alcohol and 10% rabbit serum in saline. To improve the solubility and standardise the preparation, the steroid was successively dispersed in a mixture of 2.5% alcohol and 10% phospholipid emulsion in saline.
The primary end point was the survival rate at 48 hours after induction of septic shock. The comparison of the effects of each treatment group vs. controls and among treatment groups was effected by Fisher's exact test, one-tailed. The same comparison was also performed at the other time points. The results in each treatment group were expressed as percent survival.
In all the experiments, percent survival values were calculated using the survival Tables for the follow up studies (Armitage P. Cap. XIV. Tavole di sopravvivenza in Statistica Medica, Feltrinelli, Milano). The χ^2-test was applied to each observation time by comparing the DHEA+r-hTBP-1 groups to the other groups.

Molecule	in vivo protective effects (septic shock)	% cumulative survival ([1]; Table 2, r-hTBP-1 125 μg/mouse, time 0 (i.v.) and 3, 6, 24 hours (s.c.), 24 hrs) [%]	% cumulative survival ([1]; Table 2, r-hTBP-1 125 μg/mouse, time 0 (i.v.) and 3, 6, 24 hours (s.c.), 48 hrs) [%]	% cumulative survival ([1]; Table 2, r-hTBP-1 125 μg/mouse, time 0 (i.v.) and 3, 6, 24 hours (s.c.), 72 hrs) [%]	% cumulative survival ([1]; Table 2, r-hTBP-1 125 μg/mouse, time 0 (i.v.) and 3, 6, 24 hours (s.c.), 96 hrs) [%]	% cumulative survival ([1]; Table 4, r-hTBP-1 62.5 μg/mouse, time 0 (i.v.) and 3, 6, 24 hours (s.c.), 24 hr) [%]	% cumulative survival ([1]; Table 4, r-hTBP-1 62.5 μg/mouse, time 0 (i.v.) and 3, 6, 24 hours (s.c.), 48 hr) [%]	% cumulative survival ([1]; Table 4, r-hTBP-1 62.5 μg/mouse, time 0 (i.v.) and 3, 6, 24 hours (s.c.), 72 hr) [%]	% cumulative survival ([1]; Table 4, r-hTBP-1 62.5 μg/mouse, time 0 (i.v.) and 3, 6, 24 hours (s.c.), 96 hr) [%]	% cumulative survival ([1]; Table 5 group C, r-hTBP-1 62.5 μg, time 0 i.v. and 3, 6, 24 hours s.c., 24 hrs, 1st exp.)	% cumulative survival ([1]; Table 5 group C, r-hTBP-1 62.5 μg, time 0 i.v. and 3, 6, 24 hours s.c., 24 hrs, 2nd exp.)	% cumulative survival ([1]; Table 5 group C, r-hTBP-1 62.5 μg, time 0 i.v. and 3, 6, 24 hours s.c., 48 hrs, 1st exp.)	% cumulative survival ([1]; Table 5 group C, r-hTBP-1 62.5 μg, time 0 i.v. and 3, 6, 24 hours s.c., 48 hrs, 2nd exp.) [%]	% cumulative survival ([1]; Table 5 group C, r-hTBP-1 62.5 μg, time 0 i.v. and 3, 6, 24 hours s.c., 72 hrs, 1st exp.)	% cumulative survival ([1]; Table 5 group C, r-hTBP-1 62.5 μg, time 0 i.v. and 3, 6, 24 hours s.c., 72 hrs, 2nd exp.) [%]	% cumulative survival ([1]; Table 5 group C, r-hTBP-1 62.5 μg, time 0 i.v. and 3, 6, 24 hours s.c., 96 hrs, 1st exp.)	% cumulative survival ([1]; Table 5 group C, r-hTBP-1 62.5 μg, time 0 i.v. and 3, 6, 24 hours s.c., 96 hrs, 2nd exp.) [%]	protection (survival) ([1]; r-hTBP-1 62.5 μg/mouse alone) [%]	survival ([1]; r-hTBP-1 125 μg/mouse alone (suboptimal dose))	survival ([1]; text (conclusions), r-hTBP-1 125 μg/mouse total dose alone) [%]
B1	protective effects	–	–	–	–	–	–	–	–	–	–	–	–	–	–	–	–	–	–	–
B2	–	50	50	50	50	20	10	0	0	90^a %	70^a %	80^a %	40	70^a %	30	70^a %	30	20	about 50%	50
